Patent US20190336589A1 (published 2019)

T1: Hen egg lysozyme (HEL) peptide on I-A^k (mouse)
T1 peptide: DGSTDYGILQINSR

T2: PLP (myelin proteolipid protein) peptide on I-A^s (mouse, 3rd amino acid from the N terminus substituted from cysteine to serine; contains the serine-substituted epitope of SEQ ID NO: 20)
T2 peptide: RVSHSLGKWLGHPDKF


How the values were obtained:
[1] = target: Hen egg lysozyme (HEL) peptide on I-A^k (mouse); experiment: binding, other
Target sequence in this assay (peptide, as listed by the source): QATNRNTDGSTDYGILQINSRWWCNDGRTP

[2] = target: T1, Hen egg lysozyme (HEL) peptide on I-A^k; experiment: binding, other
[3] = target: T2, PLP (myelin proteolipid protein) …; experiment: activation reporter or marker
Procedure: The cultured cells were collected, and the 2E5 reporter T cells were stained with an APC-labeled anti-CD45 antibody (clone name: 30-F11, eBioscience). Then, the stained 2E5 reporter cells were analyzed by flow cytometry so as to determine the proportion of the GFP-positive cells in the CD45-positive cells. As Control 1, the proportion of the GFP-positive cells in the CD45-positive cells was analyzed in the same manner, except that the above-described medium was added instead of the IgG antibody.

binding result [1] | binding result [2] | binding result [3] | Binder
recognises | recognises | – | 3A9 TCR (TCR, V domains shown) Valpha: AQSVTQPDARVTVSEGASLQLRCKYSYSGTPYLFWYVQYPRQGLQLLLKYYSGDPVVQGVNGFEAEFSKSNSSFHLRKASVHWSDSAVYFCALNSGGSNAKLAFGKGSKLSVKS Vbeta: AVTQSPRNKVAVTGGKVTLSCNQTNNHNNMYWYRQDTGHGLRLIHYSYGAGSTEKGDIPDGYKASRPSQENFSLILELATPSQTSVYFCASGDESALPELYFGEGSKLTVL
– | – | recognises | 2E5 TCR (TCR, V domains shown) Valpha: GEKVEQHQSTLSVREGDSAVINCTYTDTASSYFPWYKQEAGKSLHFVIDIRSNVDRKQSQRLTVLLDKKAKRFSLHITATQPEDSAIYFCAASPGANTGKLTFGHGTILRVHP Vbeta: VAGVTQTPRYLVKEEGQKAHMSCSPEKGHTAFYWYQQNQKQELTFLINFRNEEIMEQTDLVKKRFSAKCSSNSQCILEILSSEEDDSALYLCASSLVRGNSDYTFGSGTRLLVI
